Experimental data: paper PMC8554105

Columns and labels:
[1] = biological target: T. brucei coronin coiled-coil domain (T. brucei) (UniProt Q57W63); experiment: SAXS
[2] = biological target: T. brucei coronin coiled-coil domain (T. brucei) (UniProt Q57W63); experiment: cross-linking
[3] = biological target: T. brucei coronin coiled-coil domain (T. brucei) (UniProt Q57W63); experiment: SEC
[4] = biological target: T. brucei coronin coiled-coil domain (T. brucei) (UniProt Q57W63); experiment: crystal structure
[5] = biological target: T. brucei coronin coiled-coil domain V493I–V507M (T. brucei) (UniProt Q57W63); experiment: crystal structure
[6] = biological target: T. brucei coronin coiled-coil domain V507M (T. brucei) (UniProt Q57W63); experiment: crystal structure

Q: What does the source list for “T. brucei coronin coiled-coil domain (from UniProt Q57W63 477-523) (domain or fragment)”?
A: stoichiometry N [1]: 4; stoichiometry N [2]: 4; stoichiometry N [3]: 4; stoichiometry N [4]: 4

Q: How did the stoichiometry N [5] turn out when “T. brucei coronin coiled-coil domain V493I–V507M (from UniProt Q57W63 477-523) (domain or fragment)” was run?
A: The stoichiometry N was 4.

Q: “T. brucei coronin coiled-coil domain V507M (from UniProt Q57W63 477-523) (domain or fragment)” was tested. Which stoichiometry N [6] did it give?
A: The stoichiometry N was 4.
